Reference: the nanobody polyreactivity screen of Harvey et al. (2022)

Experiment: yeast display, Sf9 membrane polyspecificity reagent, FACS + sequencing; frameworks hold sequencing errors
Summary of the method: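 After 36–48 hours of galactose induction, yeast (Saccharomyces cerevisiae BJ5465) displaying a synthetic nanobody library were stained at 4 °C for 1 hour with 10% biotinylated, detergent-solubilized Sf9 membrane reagent. Streptavidin microbeads enriched the stained cells before FACS sorting into low and high (top ~1%) gates on anti-HA and streptavidin fluorescence. Each clone's polyreactivity label reflects its gate of origin.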

Row | Sequence | polyreactivity (PSR sort gate)
1 | QVQLVESGGGLVQAGGSLRLSCAASGLIFLYYAMGWYRQAPGKERELVAAISSSGSTYYADSGKGRFTISRDNAKNTVYLQMNSLKPEDTAVYYCAAAGYLYPYRYYYWGQGTQVTVSS | high polyreactivity
2 | QVQLVESGGGLVQAGGSLRLSCAASGLIFLYYAMGWYRQAPGKERELVAAISSSGSTYYADSVKGRFTISRDNAKNTVYLQMNSLKPEDTAVYYCAAAGYLYPYRYYYWGQGTQVTVSS | high polyreactivity
3 | QVQLVESGGGLVQAGGSLRLSCAASGLIFNFYAMGWYRPAPGKEREFVAAISWNAGSTYYADSVKGRFTISRDNAKNTVYLQMNSLKPEDTAVYYCNADQDYQGARPSGMDYWGQGTQVTVSS | low polyreactivity
4 | QVQLVESGGGLVQAGGSLRLSCAASGLIFNTYAMGWYRQAPGKERELVAAITDGGGTNYADSVKGRFTISRDNAKNTVYLQMNSLKPEDTAVYYCAARLASWPLTYDFQWYEYWVQGTQVTVSS | low polyreactivity
5 | QVQLVESGGGLVQAGGSLRLSCAASGLIFNVNAMGWYRQAPRKERELVAAITGGGGSTYYADSVKGRFTISRDNAKNTVYLQMNSLKPEDTAVYYCAATTGLYTRYGDWGQVTQVTVSS | high polyreactivity
6 | QVQLVESGGGLVQAGGSLRLSCAASGLIFPGYDMGWYRAAPGKVRELVAAISDSGANTYYADSVKVRFTISRDNAKNTVYLQMNSLKPEDTAVYYCAADSSWGYGTYFGRFDYWGQGTQVTVSS | low polyreactivity
7 | QVQLVESGGGLVQAGGSLRLSCAASGLIFPLYAMGWYRQAPGKERELVAAISRTGVSTDYADSVKGRFTISRDNAKNTVYLQMNSLKPEDTAVYYCNKVRTPRRRYDYWGQGTQVTVSS | low polyreactivity
8 | QVQLVESGGGLVQAGGSLRLSCAASGLIFPRYDIGWYRQAPGKESEFVAAITSGGGTYYADSVKGRFTLSRDNAKNTVYLQMNSVKPEDTAVYYCARDHYRHSRYFYRYDYWGQGTQVTVSS | low polyreactivity
9 | QVQLVESGGGLVQAGGSLRLSCAASGLIFPSYARGWYRQAPGKERELVAGINSGGSTNYADSVKGRFTISRDNAKNTVYLQMNSLKPEDTAVYYCAKDNNYYWYVSPRDYWGQGTQVTVSS | low polyreactivity
10 | QVQLVESGGGLVQAGGSLRLSCAASGLIFPYYAMGWYREAPGKARELVASIRYSAGNTYYADSVKGRFTISRDNAKNTVYLQMNSLKPEDTAVYYCWYTQNTLGNYWGQGTQVTVSS | low polyreactivity
11 | QVQLVESGGGLVQAGGSLRLSCAASGLIFPYYTMGWYRQAPGKEGELVAVINRGGSTSYADSVKGRFTISRDNEKISVYLQMNSLKPEYTAVYYCARRTPYYTSYAFDSWGQGTQVTVSS | high polyreactivity
12 | QVQLVESGGGLVQAGGSLRLSCAASGLIFQGYAMGWYRQAPGKEREFVAVITWSGGSTYYADSVKGRFTISRDNAKNTVYLQMNSLKPEDTAVYYCADDDVWYDFDYWGQGTQVTVSS | low polyreactivity
13 | QVQLVESGGGLVQAGGSLRLSCAASGLIFQVYDMGWYRQAPGKERELVAATSSGSKTNYADSVKGRFTISRDNAKNTVYLQMNSLKPEDTAVYYCAAGGPSTLDDYWGQGTQVTVSS | low polyreactivity
14 | QVQLVESGGGLVQAGGSLRLSCAASGLIFRFYAMGWYRQAPGKERELVAAISGGGGSTYYADSVKGRFTISRDNAKNTVYFQMNSLKPEDTAVYYCNTVNDKRAYGKMGYWGQGTQVTVSS | high polyreactivity
15 | QVQLVESGGGLVQAGGSLRLSCAASGLIFRGYAMGWYRQAPGKERELVAAISKSGGSTYYADSVKGRFTISRDNAKNTVYLQMNSLKPEDTAVYYCNARKHGSRTGGYYWGQGTQVTVSS | high polyreactivity
16 | QVQLVESGGGLVQAGGSLRLSCAASGLIFRHYAMGWYRQAPGKERELVAAINWDGTSTDYADSVKGRFTISRDNAKNTVYLQMNSLKPEDTAVYYCAAEGHTAFVVYRVSPLQYDYWGHGTQVTVSS | low polyreactivity
17 | QVQLVESGGGLVQAGGSLRLSCAASGLIFRIYAMGWYRQAPGKETELVAAISNSGGYTYYADSVKGRFTISRDNAKNTVYLQMNSLKPEDTAVYYCAAELRLWPWRRFDYWGQGTQVTVSS | high polyreactivity
18 | QVQLVESGGGLVQAGGSLRLSCAASGLIFRKNAMGWYRQAPGKEMELVAAISSSDSSTYADSVKGRCTISRDNAKNTVYLQMNSLKPEDTAVYYCAAASYNWLDWVTREYWGQGTQVTVSS | low polyreactivity
19 | QVQLVESGGGLVQAGGSLRLSCAASGLIFRPYAIGWYRQAPGKERELVAGITSGGNTDYADSVKGRFTISRDNAKNTVYLQMNSLKPEDTAVYYCADYFIYGYWGQGTQVTVSS | low polyreactivity
20 | QVQLVESGGGLVQAGGSLRLSCAASGLIFRPYAMGWYRQAPGKERELFAGISFRGDSTYYADSVKGRFTISRDNAKNTVYLQMNCLKPEDTAVYYCDADVYIYWPPDKLLGYDYWGQGSQVTVSS | low polyreactivity
21 | QVQLVESGGGLVQAGGSLRLSCAASGLIFRRYAMGRNRQAHGKERELVAAISRSGGSTYYADSVKGRFTISRDNEKNTVYLQMNSLKPEDTAVYYCAADYAPVFWGDYKYDYWGQGTQVTVSS | high polyreactivity
22 | QVQLVESGGGLVQAGGSLRLSCAASGLIFRVYAMGWYRQAPGKERELVAAISISDGTTNYADSVKGRFTISRDNAKNTVYLQMNSLKPEDTAVYYCAADYDFYDFSYQSWSEENYWGQGTQVTVSS | low polyreactivity

Row | Sequence | polyreactivity (PSR sort gate)
23 | QVQLVESGGGLVQAGGSLRLSCAASGLIFRVYTMGWYRQAPGKERELVSAITGRGGRTYYADSVKGRFTISRDNAKNTVYLQMNSLKPEDTAVYYCATGGRYQQAAYTGYNYWGQGTQVTVSS | high polyreactivity
24 | QVQLVESGGGLVQAGGSLRLSCAASGLIFRWYAMAWYRQAPGKERELVAAISRRGGTTNYADSVKGRFTISRDNAKNTVYLQMNTLKPEDTAVYYCAADYQSVGGAEYDYWGQGTQVTVSS | high polyreactivity
25 | QVQLVESGGGLVQAGGSLRLSCAASGLIFRYNTMGWYRQAPGKERELVAAITSSGVRTYYADSVKGRFTISRDNAKNTVYLQMNSLKPEDTAVYYCAAEGKSYPWPWYFDYWGQGTQVTVSS | high polyreactivity
26 | QVQLVESGGGLVQAGGSLRLSCAASGLIFRYYDMGWYRQAPGKERELVAAISSSGTRTYYADSVKGRFTISRENPKNTVYLQMNSLKPEDTSVYYCATENQNPTGGYWGQGTQVTVSS | high polyreactivity
27 | QVQLVESGGGLVQAGGSLRLSCAASGLIFSPYAMGWYRQAPGKVREFVAAITSRGGTYYADSVKGRFTISRDNAKNTVYLQMNSLKPEDTAVYYCAARNNRYPLYNYWGQGTQVTVSS | low polyreactivity
28 | QVQLVESGGGLVQAGGSLRLSCAASGLIFSRYTMGWNRQAPGKERELVAAISRSGTNTYYADSVKGRFTISRDNAKNTVYLQMNSLKPEDTAVYYCAARGYYRDYDSWGQGTQVTVSS | high polyreactivity
29 | QVQLVESGGGLVQAGGSLRLSCAASGLIFSRYTMGWYRQAPGKERELVAAISLGGGRTYYADSVKGRFTISRDNAKNTVYLQMNSLKPEDTAVYYCAATRYYSSDYWGQGTQVTVSS | low polyreactivity
30 | QVQLVESGGGLVQAGGSLRLSCAASGLIFSSYAMGWYRQAPGKERELVAAISGSGGSTYYADSEKGRFTISRDNAKNTVYLQMNSLKPEDTAVYYCAAELDDYWVVSEDSSGQGTQVTVSS | low polyreactivity
31 | QVQLVESGGGLVQAGGSLRLSCAASGLIFSSYAMGWYRQAPGKERELVAAITGSGGRTYYADSVKGRFTISRDNAKNTVYLQMNSLKPEDTAVYYCAAKYPDPRYYTGYDYWGQGTQVTVSS | high polyreactivity
32 | QVQLVESGGGLVQAGGSLRLSCAASGLIFSTNDMGWYRQAPGKERELVAAITSDVSTYYADSVKGRFTISRDNAKNTVYLQMNSLKPEDTAVYYCAKDDSGYINWRYDYWGQGTQVTVSS | low polyreactivity
33 | QVQLVESGGGLVQAGGSLRLSCAASGLIFSTYAMGWYRQAPGKERELVAAINSGGGNTYYADSVKGRFTISRDNAKNTVYLQMNSLKPEDTAVYYCNAQWRRHPGIWHYGYWGQGTQVTVSS | low polyreactivity
34 | QVQLVESGGGLVQAGGSLRLSCAASGLIFSWNAMGWYRQAPGKERELVASISYSGGRTYYADSVKGRFTISRDNAKNTVYLQMNSLKPEDTAVYYCAADTNATTDPEMDYWGQGTQVTVSS | low polyreactivity
35 | QVQLVESGGGLVQAGGSLRLSCAASGLIFSWYDMGWYRQAPGKERELVDAITTDGDDTYYADSVKGRFTISRDNAKNTVYLQMKSLKPEDTAVYYCDAVSEVAIRYPDRDYDSWGQGTQVTVSS | low polyreactivity
36 | QVQLVESGGGLVQAGGSLRLSCAASGLIFSYNAMGWYRQAPGKERELVATISYSGGTTYYADSVKGRFTISRDNAKNTVYLQMNSLKPEDTAVYYCAARTLYSPGRPWKWYNYGRYGYWGQGTQVTVSS | high polyreactivity
37 | QVQLVESGGGLVQAGGSLRLSCAASGLIFSYYAMGWYRQAPGKERELVAAITGSGGSTYYADSVKGRFTISRDNAKNTVYLQMNSLKPEDTAVYYCAAGRYAYTLSRKYDYWGQGTQVTVSS | high polyreactivity
38 | QVQLVESGGGLVQAGGSLRLSCAASGLIFSYYAMGWYRQAPGKETELVAGITRSGASTYADSVKGRFTISRDNAKNTVYLQMNSLKPEDTAVYYCAADWHYLGWFWQYSKYDYWGQGTQVTVSS | high polyreactivity
39 | QVQLVESGGGLVQAGGSLRLSCAASGLIFSYYTMGWYRQAPGKERELVAAISSSAGSTYYADSVKGRCTISRDNAKNTVYCQMNSLKPEDTAVYYCNVRTLVQHHSSYSSRYESWGQGTHVTVSS | high polyreactivity
40 | QVQLVESGGGLVQAGGSLRLSCAASGLIFTDYVMGWYRQAPGKEREFVAAITGSAGRTYYADSVKGRFTISRDNAKNTVYLQMNSLKPEDTAVYYCNADYWWWHEYDYWGQGTQVTVSS | high polyreactivity
41 | QVQLVESGGGLVQAGGSLRLSCAASGLIFTSNTMGWYRQAPGKERELVAAISRRGGNTYYADSVKGRFTISRDNAKNTVYLQMNSLKPEDTAVYYCAAVAYALGFASKEDYWGQGTQVTVSS | high polyreactivity
42 | QVQLVESGGGLVQAGGSLRLSCAASGLIFTSYAMGWYRHAPGKERELVAAISTSGGRTYYADSVKGRFTISRDNAKNTVYVQMNSLKAEDTAVYYCYANWRYPYDYWGQGTQVTVSS | high polyreactivity
43 | QVQLVESGGGLVQAGGSLRLSCAASGLIFTSYAMGWYRQAPGKERELVAAISTGGGRTYYADSVKGRFTISRDNAKNTVYLQMNSLKPEDTAVYYCAADSVTYGYDYWGQGTQVTVSS | high polyreactivity
